Target: the molecule itself
Test: crystal structure

B1: MvINS, an Insig homolog from Mycobacterium vanbaalenii PYR-1 (wild type) (natural protein)
chain: MRLRISEAVVLFLLGAVAALIGDHSHVVTGTTVYHTDAVPFVWSSPFWFPILVGAATASLAELRLHLPAPRDGVTARQALGGVAAVVGTYVTTALVHAFPVVPVTALVCAAAAITWCVLGDGPGAACGVVIAVIGPAVEIALVQLGVFAYHPDSDGLFGVAPFLAPLYFAFGVVAALLGELAVARRPQLGPPVCDTVSRGPGAG
- stoichiometry N: 3
